Measured values from US20140274782A1 (Stanford University, published 2014).

Experiments:
Assay in all cases: ProtoArray, GST-treated control array;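 also: human protein microarray (about 9500 recombinant proteins) incubated overnight with GST alone plus SAM cofactor as the negative control for G9a SET domain methylation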
[1] = molecular target: T1, C12orf60-Uncharacterized protein C12orf60 (human, UniProt Q5U649 1-245)
T1 sequence (looked up): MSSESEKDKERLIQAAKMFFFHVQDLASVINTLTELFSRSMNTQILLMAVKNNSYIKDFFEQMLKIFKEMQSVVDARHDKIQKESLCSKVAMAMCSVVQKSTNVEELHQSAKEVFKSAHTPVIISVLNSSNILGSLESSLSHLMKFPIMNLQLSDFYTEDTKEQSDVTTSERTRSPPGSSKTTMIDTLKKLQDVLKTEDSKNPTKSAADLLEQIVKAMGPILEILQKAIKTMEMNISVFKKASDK

[2] = molecular target: T2, SH3YL1-SH3 domain containing, Ysc84-like 1 (S. cerevisiae), mRNA (cDNA clone MGC:12275 IMAGE:3996120), … (human, UniProt Q96HL8 1-342, limits assumed)
T2 sequence (looked up): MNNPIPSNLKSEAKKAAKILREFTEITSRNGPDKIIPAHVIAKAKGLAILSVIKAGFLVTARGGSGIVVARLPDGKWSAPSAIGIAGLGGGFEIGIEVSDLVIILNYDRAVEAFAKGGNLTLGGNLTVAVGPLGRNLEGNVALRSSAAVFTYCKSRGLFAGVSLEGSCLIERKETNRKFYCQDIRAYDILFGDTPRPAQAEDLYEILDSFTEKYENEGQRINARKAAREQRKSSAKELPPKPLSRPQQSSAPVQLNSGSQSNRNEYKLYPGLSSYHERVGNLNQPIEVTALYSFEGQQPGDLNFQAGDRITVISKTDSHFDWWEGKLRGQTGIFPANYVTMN

[3] = molecular target: T3, ZRANB1-zinc finger, RAN-binding domain containing 1 (ZRANB1) (human, UniProt Q9UGI0 1-708)
T3 sequence (looked up): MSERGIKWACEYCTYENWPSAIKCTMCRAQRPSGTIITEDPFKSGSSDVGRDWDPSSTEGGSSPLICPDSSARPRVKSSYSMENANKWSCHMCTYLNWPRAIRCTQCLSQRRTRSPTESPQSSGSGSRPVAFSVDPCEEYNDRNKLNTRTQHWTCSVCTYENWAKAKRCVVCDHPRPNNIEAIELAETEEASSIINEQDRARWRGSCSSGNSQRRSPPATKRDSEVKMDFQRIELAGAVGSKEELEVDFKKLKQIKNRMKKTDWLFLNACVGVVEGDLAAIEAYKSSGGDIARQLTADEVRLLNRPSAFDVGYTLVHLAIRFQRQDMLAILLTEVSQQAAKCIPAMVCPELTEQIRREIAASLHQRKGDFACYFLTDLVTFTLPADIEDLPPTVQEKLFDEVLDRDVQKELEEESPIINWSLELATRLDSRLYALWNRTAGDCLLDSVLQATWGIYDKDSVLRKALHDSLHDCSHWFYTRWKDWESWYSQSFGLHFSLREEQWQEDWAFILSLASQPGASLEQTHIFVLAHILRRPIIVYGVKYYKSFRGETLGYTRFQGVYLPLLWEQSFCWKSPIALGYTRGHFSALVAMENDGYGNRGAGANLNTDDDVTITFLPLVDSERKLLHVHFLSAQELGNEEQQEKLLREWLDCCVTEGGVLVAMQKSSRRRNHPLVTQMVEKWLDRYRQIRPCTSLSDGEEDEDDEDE

[4] = molecular target: T4, ZBP1-Z-DNA binding protein 1 (ZBP1) (human, UniProt Q9H171 1-429, limits assumed)
T4 sequence (looked up): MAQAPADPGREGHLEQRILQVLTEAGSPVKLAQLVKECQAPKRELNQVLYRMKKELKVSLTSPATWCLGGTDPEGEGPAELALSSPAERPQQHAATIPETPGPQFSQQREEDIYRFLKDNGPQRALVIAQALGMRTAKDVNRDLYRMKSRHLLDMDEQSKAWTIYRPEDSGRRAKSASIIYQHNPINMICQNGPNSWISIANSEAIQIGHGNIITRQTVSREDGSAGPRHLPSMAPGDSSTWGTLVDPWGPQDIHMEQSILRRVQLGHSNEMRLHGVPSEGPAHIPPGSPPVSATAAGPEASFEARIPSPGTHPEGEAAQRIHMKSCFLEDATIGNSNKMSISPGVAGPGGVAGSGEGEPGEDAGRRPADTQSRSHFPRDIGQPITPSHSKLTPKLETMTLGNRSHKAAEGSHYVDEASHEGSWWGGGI

[5] = molecular target: T5, Magmas-mitochondria-associated protein involved in granulocyte-macrophage colony-stimulating factor signal … (human, UniProt Q9Y3D7 1-125)
T5 sequence (looked up): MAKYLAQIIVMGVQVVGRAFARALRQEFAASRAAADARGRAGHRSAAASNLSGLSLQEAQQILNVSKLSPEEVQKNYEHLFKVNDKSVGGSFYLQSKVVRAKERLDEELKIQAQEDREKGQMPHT

[6] = molecular target: T6, RDH11-retinol dehydrogenase 11 (all-trans/9-cis/11-cis) (RDH11) (human, UniProt Q8TC12 1-318, limits assumed)
T6 sequence (looked up): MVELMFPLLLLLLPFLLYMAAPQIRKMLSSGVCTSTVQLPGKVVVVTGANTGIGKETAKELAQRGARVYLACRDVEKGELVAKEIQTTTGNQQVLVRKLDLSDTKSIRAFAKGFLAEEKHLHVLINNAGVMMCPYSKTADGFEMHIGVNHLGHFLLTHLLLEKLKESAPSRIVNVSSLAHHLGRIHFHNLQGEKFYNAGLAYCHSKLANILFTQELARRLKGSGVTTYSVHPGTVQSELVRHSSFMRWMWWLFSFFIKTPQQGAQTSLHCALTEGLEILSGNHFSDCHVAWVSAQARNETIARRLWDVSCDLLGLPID

[7] = molecular target: T7, MAGEH1-melanoma antigen family H, 1 (MAGEH1) (human, UniProt Q9H213 1-219)
T7 sequence (looked up): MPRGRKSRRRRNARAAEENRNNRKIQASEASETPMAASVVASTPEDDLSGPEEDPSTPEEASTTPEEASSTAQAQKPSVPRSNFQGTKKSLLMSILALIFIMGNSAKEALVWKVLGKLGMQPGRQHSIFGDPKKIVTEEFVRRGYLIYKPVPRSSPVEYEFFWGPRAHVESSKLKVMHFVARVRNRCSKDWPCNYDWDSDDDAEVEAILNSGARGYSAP

B1: 3× Flag-3×MBT (designed binder)
chain: EEWSSSQPATGEKKECWSWESYLEEQKAITAPVSLFQDSQAVTHNKNGFKLGMKLEGIDPQHPSMYFILTVAEVCGYRLRLHFDGYSECHDFWVNANSPDIHPAGWFEKTGHKLQPPKGYKEEEFSWSQYLRSTRAQAAPKHLFVSQSHSPPPLGFQVGMKLEAVDRMNPSLVCVASVTDVVDSRFLVHFDNWDDTYDYWCDPSSPYIHPVGWCQKQGKPLTPPQDYPDPDNFCWEKYLEETGASAVPTWAFKVRPPHSFLVNMKLEAVDRRNPALIRVASVEDVEDHRIKIHFDGWSHGYDFWIDADHPDIHPAGWCSKTGHPLQPPLGPREPSSASPGG
notes: also called Flag-tagged 3×MBT; 3xFlag-3xMBT; not shown: made by PreScission cleavage of GST-3× Flag-3×MBT
**Q.** What does the source list for B1?
**A.** GST Average SNR [1]: -0.007; GST Average SNR [2]: 0.26; GST Average SNR [3]: -0.43; GST Average SNR [4]: 0.628; GST Average SNR [5]: -1.16; GST Average SNR [6]: 0.0685; GST Average SNR [7]: 1.11
